Paper PMC6778195

B1: unnamed (parent)
chain 1: PCVVGGQADTIYPAIANQMAHQMHEDAQTEASKRGLAKLRADAKQGIYKKNRKPQELSNICNITLQHSNDSRNGNNGGACTGKDGNNERFKIGTEWKIGEKVETTDTDAYIPPRRQHMCTSNLENLNVSWVTEDGKAIHSLLGDVQLAAKMDADEIIKRYKKHNTLTDPIQQKDQESICRAVRYSFADLGDIIRGRDLWEHGDQTKLQGHLQIIFGKIKEEIKKKHPGINGNDKYKGDEKNNPPYKQLREDWWEANRHQVWRAMQCELKNLKKSNGDCHYNSRGTPLDDYIPQRLRWMVEWAEWFCKMQSQEYDKLMKQCSQCMSKGGDCRKGDVNCTSCEQACEEYKKKIKKWEKQWNKIKDKYEELYLQAKIAFAGTSFGGGDRDYQQMVHFFKELQKVTGDTTLGDTTSPYSTAAGYIHQEGHVDECTEQTQFCKNRNGNTASGKEDDNYTFKDPPPKYANACKCD
chain 2: QTSVSPSKVILPRGGSVLVTCSTSCDQPKLLGIETPLPKKELLLPGNNRKVYELSNVQEDSQPMCYSNCPDGQSTAKTFLTVYWTPERVELAPLPSWQPVGKNLTLRCQVEGGAPRANLTVVLLRGEKELKREPAVGEPAEVTTTVLVRRDHHGANFSCRTELDLRPQGLELFENTSAPYQLQTFVLPATPPQLVSPRVLEVDTQGTVVCSLDGLFPVSEAQVHLALGDQRLNPTVTYGNDSFSAKASVSVTAEDEGTQRLTCAVILGNQSQETLQTVTIYSFPAPNVILTKPEVSEGTEVTVKCEAHPRAKVTLNGVPAQPLGPRAQLLLKATPEDNGRSFSCSATLEVAGQLIHKNQTRELRVLYGPRLDERDCPGNWTWPENSQQTPMCQAWGNPLPELKCLKDGTFPLPIGESVTVTRDLEGTYLCRARSTQGEVTRKVTVNVLSPRYE

Variants of: B1
Test: SPR
Conditions: with partner chain of the complex shown; top curve of the dilution series (250 nM), read at end of injection (~250 s); parent: 260; read off a plot

Going from chain 1 E366A to chain 1 G382A G383A, the response rises from 190 RU to 280 RU.

First: chain 1 G382A G383A G384A
Second: chain 1 G383A
The response of the first is lower: 260 RU for the first, 270 RU for the second.

Compared with chain 1 L370D, chain 1 L407D is higher in response: 70 RU for the first, 220 RU for the second.

Compared with chain 1 N241A, chain 1 N242A is lower in response: 280 RU for the first, 270 RU for the second.

chain 1 Q389A gave a response of 280 RU.
